This data set relates to Saccharomyces cerevisiae. As to the kind of experiment: protein stability index of tFT-peptide fusion (C-terminal peptide) (PSI (0-1 scale)); higher = more stable (slower turnover). Particulars: temperature: 30 C. As for the experimental part:
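MPS profiling in S. cerevisiae of the yeast C-terminome library: the last 12 aa of each annotated ORF are fused to the C-terminus of a sfGFP-mCherry timer, after a GGGS linker. Cells are FACS-sorted into 8 mCherry/sfGFP bins and deep-sequenced. PSI runs from 0 (unstable) to 1 (stable); wild type and das1Δ backgrounds, two technical replicates each.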

Setting [1] is: genetic background: das1 deletion.

Results on 67 sequences are retold here after the supplement of paper PMC10724198.

± gives the standard deviation of the averaged measurements.

As for LKALANETMSRI [VPS16 C-terminal 12 aa], the protein stability index was 0.712 ± 0.011 under setting [1] and 0.706 ± 0.049 (genetic background: wild type).

For the sequence LKRISDIQADSS [PET494 C-terminal 12 aa], the protein stability index turned out to be 0.692 ± 0.031 under setting [1] and 0.6987 ± 0.0012 (genetic background: wild type).

The sequence LKSLKKNLTRDR [MTF2 C-terminal 12 aa] displayed a protein stability index under setting [1] of 0.722 ± 0.033 and a protein stability index (genetic background: wild type) of 0.6605 ± 0.0051.

For LKSQSLTTGWSL [MNS1 C-terminal 12 aa], the protein stability index is, setting by setting: under setting [1], 0.7194 ± 0.0048; (genetic background: wild type) 0.741 ± 0.058.

As to LLCSDLVNGLMQ [SEC21 C-terminal 12 aa], the protein stability index was found to be 0.706 ± 0.029 under setting [1] and 0.707 ± 0.0075 (genetic background: wild type).

LLDGGDGDEDAV [GON7 C-terminal 12 aa] showed a protein stability index under setting [1] of 0.6942 ± 0.002 and a protein stability index (genetic background: wild type) of 0.7 ± 0.036.

For “LLEAFLRKEQKV [YGR174W-A C-terminal 12 aa]”, the protein stability index runs as follows: under setting [1], 0.596 ± 0.012; (genetic background: wild type) 0.619 ± 0.019.

For LLEDQVPVETKA [PYC1 C-terminal 12 aa], the protein stability index runs as follows: under setting [1], 0.551 ± 0.018; (genetic background: wild type) 0.582 ± 0.0095.

In the case of LLEKLDIKDKKE [YVC1 C-terminal 12 aa], the protein stability index by setting is: under setting [1], 0.661 ± 0.018; (genetic background: wild type) 0.703 ± 0.024.

LLISMIAAGILL [GAS2 C-terminal 12 aa] yielded a protein stability index under setting [1] of 0.5322 ± 0.0015 and a protein stability index (genetic background: wild type) of 0.551 ± 0.017.

Consider LLKQLKQGKISV [NOT3 C-terminal 12 aa], for which the protein stability index was found to be 0.669 ± 0.022 under setting [1] and 0.6481 ± 0.0033 (genetic background: wild type).

Consider LLLGTVSATNAI [YPL062W C-terminal 12 aa], for which the protein stability index amounted to 0.6878 ± 0.004 under setting [1] and 0.706 ± 0.038 (genetic background: wild type).

LLPGNTNLPWTS [ERG12 C-terminal 12 aa] came in with a protein stability index under setting [1] of 0.7093 ± 0.0045 and a protein stability index (genetic background: wild type) of 0.742 ± 0.08.

LLQVYDRVKASM [TOP3 C-terminal 12 aa] had a protein stability index under setting [1] of 0.67 ± 0.00086 and a protein stability index (genetic background: wild type) of 0.5992 ± 0.0013.

Consider “LLRPPKPPLFCC [YGL123C-A C-terminal 12 aa]”, for which the protein stability index amounted to 0.6368 ± 0.0044 under setting [1] and 0.418 ± 0.032 (genetic background: wild type).

As to LLRPRSPVQKAQ [KAR4 C-terminal 12 aa], the protein stability index runs as follows: under setting [1], 0.69 ± 0.025; (genetic background: wild type) 0.658 ± 0.064.

With LLVEKKDIPSNS [PRM4 C-terminal 12 aa], the protein stability index by setting is: under setting [1], 0.6965 ± 0.001; (genetic background: wild type) 0.675 ± 0.013.

In the case of LLYCNIYVYYRF [KAR1 C-terminal 12 aa], the protein stability index was found to be 0.15 ± 0.014 under setting [1] and 0.161 ± 0.0022 (genetic background: wild type).

For LMRRFVLEFEKQ [SEC6 C-terminal 12 aa], the protein stability index came to 0.716 ± 0.0098 under setting [1] and 0.726 ± 0.021 (genetic background: wild type).

As to LNEKESTKLFYR [ELP6 C-terminal 12 aa], the protein stability index by setting is: under setting [1], 0.6871 ± 0.002; (genetic background: wild type) 0.701 ± 0.013.

As to LNELGEFKVINS [NPR2 C-terminal 12 aa], the protein stability index under setting [1] is 0.689 ± 0.014 and the protein stability index (genetic background: wild type) came out at 0.6914 ± 0.0059.

For LNKKREKKDETE [CSM1 C-terminal 12 aa], the protein stability index came to 0.707 ± 0.038 under setting [1] and 0.718 ± 0.055 (genetic background: wild type).

In the case of LNNIKTIIEGPE [XYL2 C-terminal 12 aa], the protein stability index was 0.676 ± 0.058 under setting [1] and 0.716 ± 0.054 (genetic background: wild type).

Consider LPAEILSNEPLK [YML119W C-terminal 12 aa], for which the protein stability index under setting [1] is 0.688 ± 0.01 and the protein stability index (genetic background: wild type) was determined as 0.692 ± 0.071.

In turn, LPEPNFFRKAAF [AXL1 C-terminal 12 aa] registered a protein stability index under setting [1] of 0.7202 ± 0.0035 and a protein stability index (genetic background: wild type) of 0.7 ± 0.015.

Consider LPFGCVDDVNRQ [MSK1 C-terminal 12 aa], for which the protein stability index stood at 0.706 ± 0.05 under setting [1] and 0.719 ± 0.021 (genetic background: wild type).

With LPKIIKKHQRLS [MRH4 C-terminal 12 aa], the protein stability index is, setting by setting: under setting [1], 0.724 ± 0.056; (genetic background: wild type) 0.191 ± 0.0044.

As for LPPGRVFSRVRR [MRPL35 C-terminal 12 aa], the protein stability index reads like this: under setting [1], 0.683 ± 0.022; (genetic background: wild type) 0.666 ± 0.012.

For LPRDSAMSAPDI [YMR085W C-terminal 12 aa], the protein stability index is 0.7049 ± 0.001 under setting [1] and 0.7081 ± 0.0025 (genetic background: wild type).

LQMVKNAKDLST [CYR1 C-terminal 12 aa]: the protein stability index came out at 0.6866 ± 0.0026 under setting [1] and 0.694 ± 0.016 (genetic background: wild type).

On to LQSDKDLQSLLT [CUE1 C-terminal 12 aa], for which the protein stability index is, setting by setting: under setting [1], 0.698 ± 0.0011; (genetic background: wild type) 0.683 ± 0.011.

LRSKVKNHAQRH [YLR428C C-terminal 12 aa] showed a protein stability index under setting [1] of 0.714 ± 0.018 and a protein stability index (genetic background: wild type) of 0.693 ± 0.021.

For LRTVASRLKERY [PNO1 C-terminal 12 aa], the protein stability index under setting [1] worked out at 0.698 ± 0.013 and the protein stability index (genetic background: wild type) amounted to 0.706 ± 0.056.

Take LSEEALSTCCCS [YJL118W C-terminal 12 aa]: the protein stability index stood at 0.7528 ± 0.0039 under setting [1] and 0.738 ± 0.047 (genetic background: wild type).

Consider LSFADYRKKLLK [SET3 C-terminal 12 aa], for which the protein stability index reads like this: under setting [1], 0.70897 ± 0.00015; (genetic background: wild type) 0.689 ± 0.016.

Regarding “LTVTRWKLQITG [YPR160W-A C-terminal 12 aa]”, the protein stability index reads like this: under setting [1], 0.659 ± 0.013; (genetic background: wild type) 0.4486 ± 0.0032.

As for LVSMTILVSGLI [SHE9 C-terminal 12 aa], the protein stability index is, setting by setting: under setting [1], 0.246 ± 0.025; (genetic background: wild type) 0.262 ± 0.02.

On to LWDNKPVEKKRQ [SHH4 C-terminal 12 aa], for which the protein stability index reads like this: under setting [1], 0.712 ± 0.023; (genetic background: wild type) 0.72 ± 0.027.

Take LYEEHQQMLDKQ [IPI3 C-terminal 12 aa]: the protein stability index is 0.7227 ± 0.0019 under setting [1] and 0.726 ± 0.088 (genetic background: wild type).

Consider “LYSLPISVPCTS [YDL086C-A C-terminal 12 aa]”, for which the protein stability index was determined as 0.292 ± 0.013 under setting [1] and 0.313 ± 0.018 (genetic background: wild type).

As for MALLAMVMGVDM [URA2 C-terminal 12 aa], the protein stability index by setting is: under setting [1], 0.6024 ± 0.0046; (genetic background: wild type) 0.676 ± 0.13.

Turning to MDTLEEMFTEEP [PRP42 C-terminal 12 aa], the protein stability index worked out at 0.726 ± 0.027 under setting [1] and 0.7107 ± 0.0067 (genetic background: wild type).

With MIVRFFKKVTFR [CHS1 C-terminal 12 aa], the protein stability index under setting [1] was determined as 0.7384 ± 0.0049 and the protein stability index (genetic background: wild type) worked out at 0.705 ± 0.008.

Regarding MIWKWLIEDKKN [MRS2 C-terminal 12 aa], the protein stability index is 0.72 ± 0.011 under setting [1] and 0.69 ± 0.052 (genetic background: wild type).

In turn, MKDFSKNEQKEK [SEY1 C-terminal 12 aa] gave a protein stability index under setting [1] of 0.719 ± 0.037 and a protein stability index (genetic background: wild type) of 0.72 ± 0.043.

For the sequence MKHTKKLQLDKV [PKP2 C-terminal 12 aa], the protein stability index under setting [1] came out at 0.69 ± 0.007 and the protein stability index (genetic background: wild type) came out at 0.696 ± 0.024.

As to MNEIDARIFEYK [SPO11 C-terminal 12 aa], the protein stability index stood at 0.764 ± 0.024 under setting [1] and 0.681 ± 0.013 (genetic background: wild type).

MQLARRIRGQFI [CSE4 C-terminal 12 aa] gave a protein stability index under setting [1] of 0.691 ± 0.0093 and a protein stability index (genetic background: wild type) of 0.646 ± 0.02.

Regarding MRIRSDMSMMRW [COR1 C-terminal 12 aa], the protein stability index reads like this: under setting [1], 0.71 ± 0.0094; (genetic background: wild type) 0.7133 ± 0.0025.

For MRNNNDTTFKSF [YNL013C C-terminal 12 aa], the protein stability index under setting [1] is 0.685 ± 0.015 and the protein stability index (genetic background: wild type) was 0.698 ± 0.02.

Regarding MSLMRKAYHFWC [BAP2 C-terminal 12 aa], the protein stability index reads like this: under setting [1], 0.726 ± 0.024; (genetic background: wild type) 0.619 ± 0.039.

Consider MTMILSRMSCSA [IRA2 C-terminal 12 aa], for which the protein stability index is, setting by setting: under setting [1], 0.622 ± 0.014; (genetic background: wild type) 0.609 ± 0.015.

Take MVEAAALKRNKK [ARO10 C-terminal 12 aa]: the protein stability index reads like this: under setting [1], 0.686 ± 0.049; (genetic background: wild type) 0.7161 ± 0.0026.

On to MVYKPEDSLLKI [MTR2 C-terminal 12 aa], for which the protein stability index amounted to 0.684 ± 0.039 under setting [1] and 0.67 ± 0.014 (genetic background: wild type).

In turn, MYCASFQLPANV [TRM5 C-terminal 12 aa] registered a protein stability index under setting [1] of 0.673 ± 0.015 and a protein stability index (genetic background: wild type) of 0.6578 ± 0.0027.

In the case of NDEEKQALAEKA [YLR297W C-terminal 12 aa], the protein stability index reads like this: under setting [1], 0.683 ± 0.011; (genetic background: wild type) 0.6834 ± 0.0067.

For NDGTSANSACSC [VPS21 C-terminal 12 aa], the protein stability index turned out to be 0.715 ± 0.012 under setting [1] and 0.691 ± 0.045 (genetic background: wild type).

With NDITLAVYTSAQ [EGO2 C-terminal 12 aa], the protein stability index by setting is: under setting [1], 0.6895 ± 0.00082; (genetic background: wild type) 0.651 ± 0.021.

NEDLGLSDIKVE [ZPR1 C-terminal 12 aa] returned a protein stability index under setting [1] of 0.694 ± 0.0078 and a protein stability index (genetic background: wild type) of 0.68742 ± 0.00015.

In the case of NEQEINKIFEPE [HXT14 C-terminal 12 aa], the protein stability index reads like this: under setting [1], 0.694 ± 0.01; (genetic background: wild type) 0.743 ± 0.052.

As to NEQVKKFFLNNV [NAS6 C-terminal 12 aa], the protein stability index runs as follows: under setting [1], 0.701 ± 0.029; (genetic background: wild type) 0.714 ± 0.01.

Regarding NGLNWEVIEYHA [HRI1 C-terminal 12 aa], the protein stability index by setting is: under setting [1], 0.724 ± 0.008; (genetic background: wild type) 0.713 ± 0.042.

For NGNNAESGETKQ [SSC1 C-terminal 12 aa], the protein stability index reads like this: under setting [1], 0.6813 ± 0.0068; (genetic background: wild type) 0.6673 ± 0.0059.

Take NKAPSWLLTALE [OCA1 C-terminal 12 aa]: the protein stability index was determined as 0.6834 ± 0.0031 under setting [1] and 0.69 ± 0.027 (genetic background: wild type).

With NKKRLSVDYILT [USV1 C-terminal 12 aa], the protein stability index amounted to 0.689 ± 0.05 under setting [1] and 0.679 ± 0.022 (genetic background: wild type).

Take NKNKNKVTKGRR [RAD27 C-terminal 12 aa]: the protein stability index came out at 0.668 ± 0.024 under setting [1] and 0.672 ± 0.026 (genetic background: wild type).

As to NKVDINMEQEKF [UGO1 C-terminal 12 aa], the protein stability index reads like this: under setting [1], 0.699 ± 0.043; (genetic background: wild type) 0.651 ± 0.027.
